In patent US20040063116:

Columns and labels:
[1] = target: T1, RNase A zymogen with 104/105 termini, P61823
T1 chain: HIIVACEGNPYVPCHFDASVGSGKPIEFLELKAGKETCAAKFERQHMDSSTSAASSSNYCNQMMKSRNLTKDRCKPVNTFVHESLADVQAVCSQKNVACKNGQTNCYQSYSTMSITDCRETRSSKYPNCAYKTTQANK

[2] = target: T2, RNase A zymogen with 113/114 termini, P61823
T2 chain: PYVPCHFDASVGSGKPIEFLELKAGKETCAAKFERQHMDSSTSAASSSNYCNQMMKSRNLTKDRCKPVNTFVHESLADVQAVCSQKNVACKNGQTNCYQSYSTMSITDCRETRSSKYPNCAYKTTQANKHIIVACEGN

[3] = target: RNase A zymogen with 20/21 termini, P61823
[4] = target: T3, RNase A zymogen with 67/71 termini, P61823
T3 chain: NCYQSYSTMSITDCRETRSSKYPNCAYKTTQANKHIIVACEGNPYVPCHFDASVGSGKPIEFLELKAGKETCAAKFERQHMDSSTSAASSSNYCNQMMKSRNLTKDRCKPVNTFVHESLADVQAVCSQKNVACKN

[5] = target: T4, RNase A zymogen with 88/89 termini, P61823
T4 chain: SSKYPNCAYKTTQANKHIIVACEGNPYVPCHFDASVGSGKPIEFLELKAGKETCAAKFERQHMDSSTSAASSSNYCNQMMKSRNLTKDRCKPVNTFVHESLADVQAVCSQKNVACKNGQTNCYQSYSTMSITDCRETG

RNase A zymogen with 20/21 termini, P61823, sequence (P61823 whole entry, looked up): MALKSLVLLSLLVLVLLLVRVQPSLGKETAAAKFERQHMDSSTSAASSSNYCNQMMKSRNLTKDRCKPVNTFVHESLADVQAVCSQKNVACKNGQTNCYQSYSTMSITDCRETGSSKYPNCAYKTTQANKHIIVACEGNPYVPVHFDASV

B1: plasmepsin II (protein)
chain: MDITVREHDFKHGFIKSNSTFDGLNIDNSKNKKKIQKGFQILYVLLFCSVMCGLFYYVYENVWLQRDNEMNEILKNSEHLTIGFKVENAHDRILKTIKTHKLKNYIKESVNFLNSGLTKTNYLGSSNDNIELVDFQNIMFYGDAEVGDNQQPFTFILDTGSANLWVPSVKCTTAGCLTKHLYDSSKSRTYEKDGTKVEMNYVSGTVSGFFSKDLVTVGNLSLPYKFIEVIDTNGFEPTYTASTFDGILGLGWKDLSIGSVDPIVVELKNQNKIENALFTFYLPVHDKHTGFLTIGGIEERFYEGPLTYEKLNHDLYWQITLDAHVGNIMLEKANCIVDSGTSAITVPTDFLNKMLQNLDVIKVPFLPFYVTLCNNSKLPTFEFTSENGKYTLEPEYYLQHIEDVGPGLCMLNIIGLDFPVPTFILGDPFMRKYFTVFDYDNHSVGIALAKKNL
Q: Which “proteolytic cleavage of the zymogen (SDS-PAGE) and gain of ribonucleolytic activity” value (“proteolytic cleavage of the zymogen” for short) [1] does the source give for B1 here?
A: The value was “The proteolytic cleavage by plasmepsin II was complete within 10 minutes at an approximately 1:100 molar ratio of protease to zymogen”.

Q: What about the “proteolytic cleavage of the zymogen” value [2] of the same protein?
A: Its value is “The proteolytic cleavage by plasmepsin II was complete within 10 minutes at an approximately 1:100 molar ratio of protease to zymogen”.

Q: And the “proteolytic cleavage of the zymogen” value [3]?
A: The value was “The proteolytic cleavage by plasmepsin II was complete within 10 minutes at an approximately 1:100 molar ratio of protease to zymogen”.

Q: And the “proteolytic cleavage of the zymogen” value [4]?
A: Its value is “The proteolytic cleavage by plasmepsin II was complete within 10 minutes at an approximately 1:100 molar ratio of protease to zymogen”.

Q: And the “proteolytic cleavage of the zymogen” value [5]?
A: Its value is “The proteolytic cleavage by plasmepsin II was complete within 10 minutes at an approximately 1:100 molar ratio of protease to zymogen”.
